Measurements as given in paper doi:10.1101/764241.
Read-outs that look alike come from different tables or passages of the source.

Key:
[1] = target: Toxoplasma gondii Gat1 (Toxoplasma gondii); assay: SEC + AUC
[2] = target: Pythium ultimum Gat1 (Pythium ultimum); assay: AUC
[3] = target: Pythium ultimum Gat1 (Pythium ultimum); assay: AUC; remark: listed apart in the source

Substance | stoichiometry N [1] | fold higher dimer affinity than Oc-glycogenin-1 (reported Kd 0.85 µM) [2] [fold] | stoichiometry N [2] | stoichiometry N [3]
Toxoplasma gondii Gat1 (enzyme) | 2 |  |  | 
Pythium ultimum Gat1 (enzyme) |  | > 2 | 2 | 2
